Each block holds one binder with its values, some of them ahead of it.
Experiments:
Test in all cases: cell-based or functional assay
BMP-10 = molecular target: T1, BMP-10 (UniProt O95393 317-424)
T1 sequence (looked up): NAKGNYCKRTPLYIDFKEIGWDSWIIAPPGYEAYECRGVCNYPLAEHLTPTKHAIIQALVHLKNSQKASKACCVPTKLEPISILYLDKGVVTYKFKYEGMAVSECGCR

BMP-9 = molecular target: T2, BMP-9 (UniProt Q9UK05 320-429)
T2 sequence (looked up): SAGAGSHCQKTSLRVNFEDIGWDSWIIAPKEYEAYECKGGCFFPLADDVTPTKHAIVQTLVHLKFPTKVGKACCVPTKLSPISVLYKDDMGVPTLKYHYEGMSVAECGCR

GDF-11 = molecular target: T3, GDF-11 (UniProt O95390 299-407)
T3 sequence (looked up): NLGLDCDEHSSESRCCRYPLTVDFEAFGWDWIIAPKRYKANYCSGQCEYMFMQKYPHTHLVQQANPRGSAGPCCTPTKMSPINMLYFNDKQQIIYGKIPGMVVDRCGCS

activin B = molecular target: T4, activin B (UniProt P09529 293-407)
T4 sequence (looked up): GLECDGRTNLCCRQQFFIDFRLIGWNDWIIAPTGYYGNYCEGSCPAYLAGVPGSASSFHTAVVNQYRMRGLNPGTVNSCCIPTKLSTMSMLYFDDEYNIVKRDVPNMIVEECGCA

[1] = molecular target: T5, recombinant human activin A (human, UniProt P08476 311-426)
T5 sequence (looked up): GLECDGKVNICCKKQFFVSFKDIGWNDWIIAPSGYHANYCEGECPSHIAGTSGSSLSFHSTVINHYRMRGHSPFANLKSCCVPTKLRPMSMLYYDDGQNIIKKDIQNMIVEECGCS

GDF-8 = molecular target: T6, GDF-8 (UniProt O14793 267-375)
T6 sequence (looked up): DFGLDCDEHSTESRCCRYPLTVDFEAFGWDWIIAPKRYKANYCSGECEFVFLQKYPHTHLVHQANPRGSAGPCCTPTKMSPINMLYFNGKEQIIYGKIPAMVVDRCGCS

BMP-10 IC50 (BMP-10): > 100 nM | BMP-9 IC50 (BMP-9): > 1000 nM | GDF-11 IC50 (GDF-11): 0.53 nM | Activin B IC50 (activin B): 2 nM | Activin A IC50 [1]: 0.56 nM | GDF-8 IC50 (GDF-8): 0.18 nM
B1: P1372 (Fc fusion)
chain: ETRECIYYNANWELERTNQSGLERCEGEQDKRWHCYASWRNSSGTIELVKKGCWLDDFNCYDRQECVATEENPQVYFCCCEGNFCNERFTHLPEAGGPEVTYEPPPTGGGGSGGGGSGGGGTHTCPPCPAPELLGGPSVFLFPPKPKDTLYITREPEVTCVVVDVSHEDPEVKFNWYVDGVEVHNAKTKPREEQYNSTYRVVSVLTVLHQDWLNGKEYKCKVSNKALPAPIEKTISKAKGQPREPQVYTLPPSRDELTKNQVSLTCLVKGFYPSDIAVEWESNGQPENNYKTTPPVLDSDGSFFLYSKLTVDKSRWQQGNVFSCSVMHEALHNHYTQKSLSLSPG

BMP-10 IC50 (BMP-10): > 100 nM | BMP-9 IC50 (BMP-9): > 1000 nM | GDF-11 IC50 (GDF-11): 0.39 nM | Activin B IC50 (activin B): 2 nM | Activin A IC50 [1]: 0.53 nM | GDF-8 IC50 (GDF-8): 0.33 nM
B2: P1375 (Fc fusion)
chain: ETRECIYYNANWELERTNQSGLERCEGEQDKRWHCYASWRNSSGTIELVKKGCWLDDFNCYDRQECVATEENPQVYFCCCEGNFCNERFTHLPEAGGPEVTYEPPPTGGGGSGGGGSGGGGSGGGGTHTCPPCPAPELLGGPSVFLFPPKPKDTLYITREPEVTCVVVDVSHEDPEVKFNWYVDGVEVHNAKTKPREEQYNSTYRVVSVLTVLHQDWLNGKEYKCKVSNKALPAPIEKTISKAKGQPREPQVYTLPPSRDELTKNQVSLTCLVKGFYPSDIAVEWESNGQPENNYKTTPPVLDSDGSFFLYSKLTVDKSRWQQGNVFSCSVMHEALHNHYTQKSLSLSPG

From US20240254195A1 (35PHARMA, published 2024)
